Patent publication US20080279957A1, “Immunomodulating compositions from bile” (Lorus Therapeutics Inc., priority 2000, published 2008)

Columns and labels:
[1] = test system: tumor cells (monocyte cytotoxicity assay); assay: Effect of indomethacin on tumoricidal function of cancer patients' monocytes (Example 15); conditions: for regulation of tumoricidal function by an indomethacin-sensitive function: indomethacin up to 5 ng/ml
[2] = test system: mouse hybridoma cell line HYB #6-1; assay: Antiproliferative bioassay in mouse hybridoma cells (Example 4); type: cell-based; conditions: procedure of Example 4
Experimental: The bioassay is carried out as follows. […] Hybridoma cell samples are specifically quantitated. Using a hemocytometer the calls in a 100 μl sample are counted. The cells are concentrated by centrifugation and then cell concentration is adjusted to 1,000 cells/ml (twice the final desired concentration) by addition of appropriate volumes of fresh media. […] After 96 hours, each well is sampled at 100 μl×3 and placed in a 96 well plate. (A blank of 100 μl of medium without cells is included.) Cell density is determined using a PROMEGA CellTiter 96 kit. Cell concentration is measured by reading absorbance at 595 nm (650 nm reference) and recorded by ELISA plate reader. For each assay, a standard curve of cell concentration is prepared. Cultured cells in the log phase of growth are sampled, counted, concentrated and resuspended in serial dilutions. Each dilution is sampled at 100 μl×3 and placed in a 96 well plate. The standard curve is constructed by plotting cell density versus “net” OD at 595 nm after subtraction of zero cell blanks and OD at 650 nm. Cell density of unknown samples is determined by interpolation.

lymphocytes = assay: Stimulation of lymphocyte DNA synthesis; type: cell-based, human; conditions: optimal stimulating concentration of PHA
Experimental: These indicators of immune function also can be modulated in cancer patients who are treated with different biological response modifying agents such as interferon or interleukin-2.
1) Stimulation of Lymphocyte DNA Synthesis: Comparison with an Optimal Stimulating Concentration of Phytohemagglutinin (PHA)

[3] = test system: tumor cells (monocyte cytotoxicity assay); assay: Tumor cytotoxicity of peripheral blood monocytes from patients with gynecological disease (Example 14); conditions: Monocyte/Tumor Cell ratio 15/1; 7 patients (3 benign, 4 malignant); composition 1:10 of batch 222, gamma interferon 100 U/ml, interleukin-12 500 U/ml, monocyte-CSF 500 U/ml
Text: More particularly, the patient population consisted of 7 patients, 3 with benign disease and 4 with malignant disease (2 ovarian cancers, 1 endometrial cancer, and 1 cervical cancer). Samples were removed from patients at the time of surgical procedure.

[4] = test system: tumor cells (monocyte cytotoxicity assay); assay: Tumor cytotoxicity of peritoneal macrophages from patients with gynecological disease (Example 14); type: cell-based, human; conditions: Monocyte/Tumor Cell ratio 15/1; 7 patients (3 benign, 4 malignant); composition 1:10 of batch 222, gamma interferon 100 U/ml, interleukin-12 500 U/ml, monocyte-CSF 500 U/ml
Text: Immunother 32:55-61, 1990.

With `CCCCCCCCCCCCCC(=O)O[C@@H]1[C@@H](C)[C@@]2(O)[C@@H](C=C(CO)C[C@]3(O)C(=O)C(C)=C[C@@H]23)[C@@H]2C(C)(C)[C@]12OC(C)=O` [Phorbol Ester (PNA)] the “regulation of tumoricidal function by an indomethacin-sensitive function” value (from here on “regulation of tumoricidal function”) [1] was “not regulated by an indomethacinsensitive function”.

In the case of `C[C@H](CCC(=O)NCCS(=O)(=O)O)[C@H]1CC[C@H]2[C@@H]3[C@H](O)C[C@@H]4C[C@H](O)CC[C@]4(C)[C@H]3C[C@H](O)[C@]12C` [sample (1), taurocholic acid], the “anti-proliferative activity, in words” value [2] is reported as “Neither sample (1) nor sample (2) had any detectable anti-proliferative effect”.

For `N.O` [sample (2), NH3.H2O], the “anti-proliferative activity, in words” value [2] was “Neither sample (1) nor sample (2) had any detectable anti-proliferative effect”.

In the case of Phytohemagglutinin [PHA], the “Stimulation of lymphocyte DNA synthesis” value (lymphocytes) is reported as 125,817 Counts per Minute.

With gamma interferon [IFN-γ] the “regulation of tumoricidal function” value [1] was “regulated by an indomethacin-sensitive function”.

“granulocyte macrophage colony stimulating factor [GM-CSF]” was tested, and the “regulation of tumoricidal function” value [1] was “regulated by an indomethacin-sensitive function”.

With interleukin-12 [IL-12] the “regulation of tumoricidal function” value [1] was “not regulated by an indomethacinsensitive function”, the “% Tumor Cytotoxicity (+/−S.E.) Peripheral Blood” value [3] was 26.0 ± 4% and the “% Tumor Cytotoxicity (+/−S.E.) Peritoneal Macrophage” value [4] was 8.5 ± 2%.

B1: monocyte-CSF (protein, UniProt P09603 33-554, looked up)
Macrophage colony-stimulating …: EEVSEYCSHMIGSGHLQSLQRLIDSQMETSCQITFEFVDQEQLKDPVCYLKKAFLLVQDIMEDTMRFRDNTPNAIAIVQLQELSLRLKSCFTKDYEEHDKACVRTFYETPLQLLEKVKNVFNETKNLLDKDWNIFSKNCNNSFAECSSQDVVTKPDCNCLYPKAIPSSDPASVSPHQPLAPSMAPVAGLTWEDSEGTEGSSLLPGEQPLHTVDPGSAKQRPPRSTCQSFEPPETPVVKDSTIGGSPQPRPSVGAFNPGMEDILDSAMGTNWVPEEASGEASEIPVPQGTELSPSRPGGGSMQTEPARPSNFLSASSPLPASAKGQQPADVTGTALPRVGPVRPTGQDWNHTPQKTDHPSALLRDPPEPGSPRISSLRPQGLSNPSTLSAQPQLSRSHSSGSVLPLGELEGRRSTRDRRSPAEPEGGPASEGAARPLPRFNSVPLTDTGHERQSEGSFSPQLQESVFHLLVPSVILVLLAVGGLLFYRWRRRSHQEPQRADSPLEQPEGSPLTQDDRQVELPV
For B1, the “regulation of tumoricidal function” value [1] was “regulated by an indomethacin-sensitive function”, the “% cytotoxicity” value ([1]; peripheral blood monocytes from cancer patients, activator alone or with indomethacin (up to 5 ng/ml) added simultaneously) was 14.1 ± 3% and the “% Tumor Cytotoxicity (+/−S.E.) Peripheral Blood” value [3] was 16.0 ± 2%. The “% Tumor Cytotoxicity (+/−S.E.) Peritoneal Macrophage” value [4] was 7.0 ± 2%.

B2: gamma interferon (protein, UniProt P01579 24-161, looked up)
Interferon gamma: QDPYVKEAENLKKYFNAGHSDVADNGTLFLGILKNWKEESDRKIMQSQIVSFYFKLFKNFKDDQSIQKSVETIKEDMNVKFFNSNKKKRDDFEKLTNYSVTDLNVQRKAIHELIQVMAELSPAAKTGKRKRSQMLFRG
B2 was tested, and the “% Tumor Cytotoxicity (+/−S.E.) Peripheral Blood” value [3] was 18.3 ± 2% and the “% Tumor Cytotoxicity (+/−S.E.) Peritoneal Macrophage” value [4] was 9.5 ± 1%.
